Test results reported in article PMC10164591, “RNA binding proteins Smaug and Cup induce CCR4–NOT-dependent deadenylation of the nanos mRNA in a reconstituted system”.

What was measured:
[1] = target: T1, MBP-Cup MC (Drosophila melanogaster, UniProt Q9VMA3 418-1117); assay: UV crosslinking; UV crosslinking: 16 mM HEPES pH 7.6, 50 mM K acetate, 1 mM Mg acetate, 0.8 mM ATP, 0.24 mg/ml yeast tRNA, 1 mM DTT, 10% glycerol, room temp; EMSA: deadenylation buffer with tRNA (omitted for A70 PABPC), 5% glycerol, 25 C; conditions: protein: recombinant; tags: N-terminal MBP; label: 5'-32P
T1 sequence: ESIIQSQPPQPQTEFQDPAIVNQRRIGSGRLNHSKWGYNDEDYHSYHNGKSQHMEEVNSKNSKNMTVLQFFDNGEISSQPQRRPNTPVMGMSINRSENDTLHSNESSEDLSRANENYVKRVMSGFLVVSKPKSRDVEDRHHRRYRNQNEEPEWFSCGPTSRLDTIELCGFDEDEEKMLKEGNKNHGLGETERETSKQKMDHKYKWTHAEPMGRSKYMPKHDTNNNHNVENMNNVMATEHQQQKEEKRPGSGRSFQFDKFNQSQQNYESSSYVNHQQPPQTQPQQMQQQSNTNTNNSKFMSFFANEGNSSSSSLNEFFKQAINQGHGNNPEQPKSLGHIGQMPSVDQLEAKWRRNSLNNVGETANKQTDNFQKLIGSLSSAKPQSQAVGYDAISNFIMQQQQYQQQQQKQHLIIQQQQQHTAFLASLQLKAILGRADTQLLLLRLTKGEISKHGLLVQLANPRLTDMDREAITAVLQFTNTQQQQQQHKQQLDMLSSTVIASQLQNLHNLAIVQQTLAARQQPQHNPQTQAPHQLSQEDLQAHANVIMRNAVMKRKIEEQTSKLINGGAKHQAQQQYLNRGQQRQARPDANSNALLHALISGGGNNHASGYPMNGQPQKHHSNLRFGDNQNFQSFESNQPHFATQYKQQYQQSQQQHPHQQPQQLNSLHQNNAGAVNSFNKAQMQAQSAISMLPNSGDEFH

[2] = target: T2, MBP-Cup N (Drosophila melanogaster, UniProt Q9VMA3 1-417); assay: as above; conditions: protein: recombinant; tags: N-terminal MBP; label: 5'-32P
T2 sequence: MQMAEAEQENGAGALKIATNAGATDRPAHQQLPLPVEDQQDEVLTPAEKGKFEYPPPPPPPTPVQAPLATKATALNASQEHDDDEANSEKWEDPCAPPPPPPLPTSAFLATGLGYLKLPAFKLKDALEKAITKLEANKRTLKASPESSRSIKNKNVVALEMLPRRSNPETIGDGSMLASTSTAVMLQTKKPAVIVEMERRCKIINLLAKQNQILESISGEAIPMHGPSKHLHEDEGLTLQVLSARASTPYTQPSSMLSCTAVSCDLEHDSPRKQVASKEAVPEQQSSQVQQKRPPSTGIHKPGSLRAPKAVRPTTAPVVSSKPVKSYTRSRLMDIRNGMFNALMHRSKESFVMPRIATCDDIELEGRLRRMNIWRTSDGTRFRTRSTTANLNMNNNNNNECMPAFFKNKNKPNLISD

[3] = target: T3, MBP-Cup C (Drosophila melanogaster, UniProt Q9VMA3 771-1117); assay: as above; conditions: protein: recombinant; tags: N-terminal MBP; label: 5'-32P
T3 sequence: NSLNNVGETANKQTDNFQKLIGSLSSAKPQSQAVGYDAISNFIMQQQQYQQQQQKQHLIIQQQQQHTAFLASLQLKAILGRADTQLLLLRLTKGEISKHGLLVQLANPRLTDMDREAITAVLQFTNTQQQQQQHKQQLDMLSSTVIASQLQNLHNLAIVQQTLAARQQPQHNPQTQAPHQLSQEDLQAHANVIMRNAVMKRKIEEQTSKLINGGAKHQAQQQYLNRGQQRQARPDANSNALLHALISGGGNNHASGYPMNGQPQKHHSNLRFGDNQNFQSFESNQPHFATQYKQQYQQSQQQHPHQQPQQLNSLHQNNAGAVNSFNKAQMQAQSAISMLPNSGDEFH

[4] = target: T4, MBP-Cup M (Drosophila melanogaster, UniProt Q9VMA3 418-770); assay: as above; conditions: protein: recombinant; tags: N-terminal MBP; label: 5'-32P
T4 sequence: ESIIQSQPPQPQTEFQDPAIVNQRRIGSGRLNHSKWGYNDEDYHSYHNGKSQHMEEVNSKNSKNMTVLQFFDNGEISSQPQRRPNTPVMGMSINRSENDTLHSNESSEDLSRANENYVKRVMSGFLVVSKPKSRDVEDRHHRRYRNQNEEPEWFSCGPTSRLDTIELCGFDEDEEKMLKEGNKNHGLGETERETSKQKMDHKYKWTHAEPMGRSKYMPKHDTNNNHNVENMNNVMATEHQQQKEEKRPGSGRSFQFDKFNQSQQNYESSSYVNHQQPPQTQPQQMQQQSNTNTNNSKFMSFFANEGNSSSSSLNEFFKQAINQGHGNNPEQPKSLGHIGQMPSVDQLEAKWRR

[5] = target: T5, MBP-Cup NM (Drosophila melanogaster, UniProt Q9VMA3 1-770); assay: as above; conditions: protein: recombinant; tags: N-terminal MBP; label: 5'-32P
T5 sequence: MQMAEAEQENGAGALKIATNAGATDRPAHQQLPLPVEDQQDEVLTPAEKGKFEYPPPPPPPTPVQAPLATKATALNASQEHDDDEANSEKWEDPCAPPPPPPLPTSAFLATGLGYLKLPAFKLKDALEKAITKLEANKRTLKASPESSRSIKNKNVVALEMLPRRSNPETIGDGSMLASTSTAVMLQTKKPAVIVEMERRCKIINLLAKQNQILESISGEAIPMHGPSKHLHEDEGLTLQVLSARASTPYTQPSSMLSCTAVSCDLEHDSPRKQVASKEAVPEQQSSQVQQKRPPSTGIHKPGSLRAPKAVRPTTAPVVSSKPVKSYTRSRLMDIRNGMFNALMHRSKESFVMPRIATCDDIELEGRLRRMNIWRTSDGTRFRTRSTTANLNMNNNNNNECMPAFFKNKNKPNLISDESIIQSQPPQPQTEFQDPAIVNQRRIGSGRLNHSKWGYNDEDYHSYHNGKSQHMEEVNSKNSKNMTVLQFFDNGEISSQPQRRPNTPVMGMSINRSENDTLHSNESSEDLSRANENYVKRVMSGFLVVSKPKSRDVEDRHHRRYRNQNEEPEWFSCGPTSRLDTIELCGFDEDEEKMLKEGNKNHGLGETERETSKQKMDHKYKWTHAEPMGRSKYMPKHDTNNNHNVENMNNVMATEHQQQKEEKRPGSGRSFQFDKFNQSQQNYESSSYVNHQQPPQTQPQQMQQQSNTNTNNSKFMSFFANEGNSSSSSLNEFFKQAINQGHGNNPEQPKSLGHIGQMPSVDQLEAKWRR

[6] = target: T6, His8-MBP-Cup M (Drosophila melanogaster, UniProt Q9VMA3 418-770); assay: UV crosslinking + Ni-NTA pull-down; 6 M urea wash; UV crosslinking: 16 mM HEPES pH 7.6, 50 mM K acetate, 1 mM Mg acetate, 0.8 mM ATP, 0.24 mg/ml yeast tRNA, 1 mM DTT, 10% glycerol, room temp; EMSA: deadenylation buffer with tRNA (omitted for A70 PABPC), 5% glycerol, 25 C; conditions: protein: recombinant; tags: N-terminal His8-MBP; label: 5'-32P
T6 sequence: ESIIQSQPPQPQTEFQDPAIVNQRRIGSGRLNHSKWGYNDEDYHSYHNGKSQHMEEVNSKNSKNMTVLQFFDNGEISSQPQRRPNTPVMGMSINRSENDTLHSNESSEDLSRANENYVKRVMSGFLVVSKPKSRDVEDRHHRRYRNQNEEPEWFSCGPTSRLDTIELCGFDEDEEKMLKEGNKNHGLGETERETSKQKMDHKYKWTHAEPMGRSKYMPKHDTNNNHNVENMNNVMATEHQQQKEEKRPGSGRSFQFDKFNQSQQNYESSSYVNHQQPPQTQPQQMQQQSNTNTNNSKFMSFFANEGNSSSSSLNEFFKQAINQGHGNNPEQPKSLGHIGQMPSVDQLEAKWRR

[7] = target: T7, His8-MBP-Cup C (Drosophila melanogaster, UniProt Q9VMA3 771-1117); assay: as above; conditions: protein: recombinant; tags: N-terminal His8-MBP; label: 5'-32P
T7 sequence: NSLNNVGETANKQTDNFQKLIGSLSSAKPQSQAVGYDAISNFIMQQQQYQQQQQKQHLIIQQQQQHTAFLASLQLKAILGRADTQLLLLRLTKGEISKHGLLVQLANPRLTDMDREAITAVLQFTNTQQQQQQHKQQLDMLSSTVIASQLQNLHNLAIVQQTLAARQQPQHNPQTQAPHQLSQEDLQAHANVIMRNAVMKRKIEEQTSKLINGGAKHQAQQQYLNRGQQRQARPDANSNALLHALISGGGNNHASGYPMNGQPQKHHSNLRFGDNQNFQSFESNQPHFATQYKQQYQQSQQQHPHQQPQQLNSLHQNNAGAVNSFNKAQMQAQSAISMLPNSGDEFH

[8] = target: T8, His8-MBP-Cup full length (Drosophila melanogaster, UniProt Q9VMA3 1-1117); assay: as above; conditions: protein: recombinant; tags: N-terminal His8-MBP; label: 5'-32P
T8 sequence: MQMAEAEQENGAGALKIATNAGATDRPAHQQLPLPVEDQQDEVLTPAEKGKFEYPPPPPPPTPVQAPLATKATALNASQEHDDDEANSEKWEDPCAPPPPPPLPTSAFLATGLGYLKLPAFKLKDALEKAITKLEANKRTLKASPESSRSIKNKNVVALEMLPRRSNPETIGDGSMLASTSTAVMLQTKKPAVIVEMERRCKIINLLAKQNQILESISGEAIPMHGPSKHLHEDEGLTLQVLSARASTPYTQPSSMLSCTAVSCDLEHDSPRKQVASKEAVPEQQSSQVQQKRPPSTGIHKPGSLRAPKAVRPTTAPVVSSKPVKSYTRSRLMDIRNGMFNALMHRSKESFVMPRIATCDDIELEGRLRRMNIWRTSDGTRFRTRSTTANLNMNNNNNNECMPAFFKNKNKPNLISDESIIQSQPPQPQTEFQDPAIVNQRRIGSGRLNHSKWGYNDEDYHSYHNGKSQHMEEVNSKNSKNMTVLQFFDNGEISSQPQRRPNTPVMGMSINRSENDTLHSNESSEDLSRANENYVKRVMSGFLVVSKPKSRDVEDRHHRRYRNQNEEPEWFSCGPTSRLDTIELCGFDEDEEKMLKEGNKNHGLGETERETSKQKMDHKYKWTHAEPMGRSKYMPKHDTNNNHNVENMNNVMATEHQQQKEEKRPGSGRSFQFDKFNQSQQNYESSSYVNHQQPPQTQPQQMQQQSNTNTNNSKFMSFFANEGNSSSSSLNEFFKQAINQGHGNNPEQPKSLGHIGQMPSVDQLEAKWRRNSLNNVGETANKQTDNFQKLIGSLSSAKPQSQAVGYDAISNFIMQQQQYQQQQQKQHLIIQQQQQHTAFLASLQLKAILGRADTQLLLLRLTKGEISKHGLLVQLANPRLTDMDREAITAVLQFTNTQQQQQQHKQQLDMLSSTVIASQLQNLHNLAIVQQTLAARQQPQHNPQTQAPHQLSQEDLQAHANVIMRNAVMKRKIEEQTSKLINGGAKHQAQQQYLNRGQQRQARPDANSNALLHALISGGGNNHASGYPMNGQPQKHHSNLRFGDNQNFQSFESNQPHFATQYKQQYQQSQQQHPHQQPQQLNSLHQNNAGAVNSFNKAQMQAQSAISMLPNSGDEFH

[9] = target: T9, His8-MBP-Cup MC (Drosophila melanogaster, UniProt Q9VMA3 418-1117); assay: as above; conditions: protein: recombinant; tags: N-terminal His8-MBP; label: 5'-32P
T9 sequence: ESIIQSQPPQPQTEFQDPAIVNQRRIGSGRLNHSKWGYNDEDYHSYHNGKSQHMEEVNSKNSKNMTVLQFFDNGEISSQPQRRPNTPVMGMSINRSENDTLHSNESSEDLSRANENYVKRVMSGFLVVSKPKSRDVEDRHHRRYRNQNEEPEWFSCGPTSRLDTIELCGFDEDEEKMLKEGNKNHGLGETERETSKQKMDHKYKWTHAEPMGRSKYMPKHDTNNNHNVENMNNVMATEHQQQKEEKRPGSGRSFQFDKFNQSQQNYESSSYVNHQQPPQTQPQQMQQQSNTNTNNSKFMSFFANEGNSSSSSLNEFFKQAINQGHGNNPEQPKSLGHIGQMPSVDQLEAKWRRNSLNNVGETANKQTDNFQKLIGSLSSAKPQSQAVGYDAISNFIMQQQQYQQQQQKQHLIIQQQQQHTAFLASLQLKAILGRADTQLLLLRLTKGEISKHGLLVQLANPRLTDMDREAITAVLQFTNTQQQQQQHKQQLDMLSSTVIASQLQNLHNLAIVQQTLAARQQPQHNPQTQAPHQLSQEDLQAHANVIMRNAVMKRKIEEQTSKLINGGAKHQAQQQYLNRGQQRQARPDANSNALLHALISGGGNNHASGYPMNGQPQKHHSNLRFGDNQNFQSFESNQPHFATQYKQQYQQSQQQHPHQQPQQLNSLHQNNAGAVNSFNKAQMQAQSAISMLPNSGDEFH

Measured: binding result

B1: 18nt RNA oligonucleotide (ssRNA)
RNA: GGGUUUAGUGCGCACGUG
binds: [1] | [2] | [3] | [4] | [5] | [6] | [7] | [8] | [9]
